From the nanobody polyreactivity screen of Harvey et al. (2022)

Test: yeast display, Sf9 membrane polyspecificity reagent, FACS + sequencing; frameworks hold sequencing errors
Summary of the method: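 In a synthetic yeast display library (Saccharomyces cerevisiae BJ5465), nanobody expression was induced with galactose for 36–48 hours. FACS gates were set low and high (top ~1%) using anti-HA fluorescence for expression and streptavidin fluorescence for binding of the Sf9 membrane reagent. Each polyreactivity label is drawn from the gate of origin.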

Sequence | polyreactivity (PSR sort gate)
QVQLVESGGGLVQAGGSLRLSCAASGNTLGYNAAMGWYRQAPGKERELVAAITENGGSTYYADSVKGRFTISRDNAKNTVYLQMNSLKPEDTAVYYCATAPYYYRGAYGFEYWGQGTQVTVSS | low polyreactivity
QVQLVESGGGLVQAGGSLRLSCAATGRIFGRNAMGWYRQAPGKERELVAAINSGVSTYYADSVKGRFTISRDNAKNTVYLQMNSLKPQDTAVYYCANAPPRRYYDFDYWGQGTQVTVSS | low polyreactivity
QVQLVESGGGLVQAGGSLRLSCAASGSIFRLYAMGWYRQAPGKERELVAAISWTVGRTYYADSVKGRFTISRDNAKNTVYVQMNSLKPEDTAVYYCAAEKRILANWRRFDYWGQGTQVTVSS | low polyreactivity
QVQLVESGGGLVQAGGSLRLSCAASGSIFNYNTMGWYRQAPGKERELVADISWSGGSTYYADSVKGRFTISRDNAKNTVYLQMNSLKPEDTAVYYCAADFGLFPYVGTGYYYWGQGTQVTVSS | low polyreactivity
QVQLVESGGGLVQAGGSLRLSCAASGFTFDVYTMGWYRQAPGKERELVASITYSGGDTYADSVKGRFTISRDNAKNTVYLQMNRLKPEDTAVYYCNAVVYYYLDEYWGQGTQVTVSS | high polyreactivity
QVQLVESGGGLVQAGGSLRLSCAASGSIFASYDMGWYRQAPGKERELVAAISYRGGGTYYADSVKGRVTISRDNAKNTVYLQMNSLKPEDTAVYYCNADTYSNTYRAYDYWGQGTQVTVSS | low polyreactivity
QVQLVESVGGLVQAGGSLRLSCAASGSIFRAYAMGWYRQAPGKERELVAAISRSGDSTYYADSVKGRFTISRDNAKNTVYLQMNSLKPEDTADYYCAAQRKPYVRPSGPYKRRDYWGQGTQVTVSS | high polyreactivity
QVQLVQSGGGLVQAGGSLRLSCAASGRIFVDNAMAWYRQAPGKERELDAGLTTGGSTYYADSVKGRFTISRDNAKNTVYLQMNSLKPEDTAVYYCNARDHALHRDVLYWYGFDYWAQGTQVTVSS | low polyreactivity
QVQLVESGGGLVQAGGSLRLSCAASGSIFYKNAMGWYRQAPGKERELVAAISYSGGSTYYADSVKGRFTISRDNAKNTVYLQMNSLKPEDTAVYYCAAKGGAWGQGTQVTVSS | high polyreactivity
QVQLVESGGGLVQAGGSLRLSCAASGSTFTAYAMGWYRQAPGKERELVAAINWSGGTTYYADSVKGRFTISRDNAKNTVYLQMNSLKPEDTAVYSCAVDGNFFGEVRPYDYWGQGTQVTVSS | low polyreactivity
QVQLVESGGGLVQAGGSLSLSCAASGYIFLVYAMGWYRQAPGKERELVASITRGGGTTYYADSVKGRFTISRDNAKNTVYLLMNSLKREDTAVYYCAADLYSRGHRWYGYWGQGTQVTVSS | high polyreactivity
QVQLVESGGGLVQAGGSLRLSCAASGSIFADYVMGWYRQAPGKERELVAAITRRGRTYYSDSVKGRFTISRDNAMNTVYIQMNILKPEDSAVYYCDKVASGKIDSWGQGTQVTVSS | low polyreactivity
QVQLVESGGGLVQAGGSLRLRCAASGRTFCWYAMGWYRQAPGKERELVADITYSGGNTYYADSVKGRFTITRDNAKNTVYLQMNSLKPEDTAVYYCAAERKNKYDYWGQGTQVTVTS | high polyreactivity
QGQLVESGGGLVQAGGSLRLSCAASGSSFPYYAMGWYRQAPGKERELVASINQSDGTTYYADSVKGRFSISRDNAKNTVYLQMNSLKPEDTAVYYCAADTTLQAFIRYSPIGSYDSWGQGTQVTVSS | low polyreactivity
QVQLVELGGGLVQAGGSLRLSCAASGSTFEVYAMGWYRQAPGKERELVAVINVSDGSTYYADSVKGRFTISRDNAKNTVYLQMNSLKPEDTAVYYCAAYRKGKLRMEYWGQGTQVTVSS | low polyreactivity
EEELVESGGGLVQAGGSSLRLSCAASGFIFVSNAMGWYRQAPGKERELVASIRWSDGSTFYADSVKGRFTISRDNAKNTVYLQMNSLKPEDTAVYYCNAVYEHRRVGWVTIDYGYWGQGTQVTVSS | low polyreactivity

Sequence | polyreactivity (PSR sort gate)
QVQLVESGGGLVQAGGSLRLSCAASGIIFHLYTMGWYRQAPGKERELVAAISNNGGRTYYADSVKGRFTISRDNAKNTVYLQMNSLKPEDTAVYYCAKYLSPGERHSYDYWGQGTQVTVSS | high polyreactivity
QVQLVESGGGLVQAGGSLRLSCAASGSTFKIYAMGWYRQAPGKERELVARITGRGGSTYYADSVKGRFTISRDNAKNTVYLQMNSLKPEDTAVYYCAARVYTYYYDLHKRYYWGQGTQVTVSS | high polyreactivity
QVQLVESGGGLVQAGGSLRLRCAASGFIFSAYAMGWYSQAPGKERELVAGITKSVGRTTYADSVKGRFTIARDNAKNTVYLQMNSLKPEDTAVYYCNARRSYTYRIFGMDYWGQGTQVTVSS | high polyreactivity
QVQLVESGGGLVQAGGSLRLSCAASGFIIVYYAMGWYRQAPGKERELVAAISRSGGSTYYADSVKGRFTISRDNAKNTVYLQMNSLKPEDTAVYYCNAVNVLAPSRGRRYDYWGEGTQVTVSS | high polyreactivity
QVQLVESGGGLVQAGGSLRLSCAASGSIYSRNAMGWYRQAPGKERELVAGISTGGSTNYADSVKGRFTISRDNAKNTVYLQMNSLKPEDTAVYYCAAPLAYEGDYWGQGSQVTVSS | low polyreactivity
QVQLVESGGRLVQERGSLRLSCAASGFIFGRYAMGWYIQAPGKERELVAAITQSGGSTYYADSVKGRFTISRDNAKNTVYVQMNCLNPEDTAVYYCIAPIAYWRVHYKYGYWGQGTQVTVSS | low polyreactivity
QVQLVESGGGLVHAGGILSLSSAASGFTIGYYSMGWYRQAPGKERELVAAINWSGGRTYYGDSVKGRFTISRDIAKNTVYFQMTSLKPEDTAVYYCAADPNKGRQMYYWGQGSQVTVSS | high polyreactivity
QVQLVESGGGLVQAGGSLRLSCAASGRIFGSYVMGWYRQAPGKERELVAAISRRGGSTYYADSVKGRFTISRDNAKNTVYLQMNSLKPEDTAVDYCAAEFSPSSNPYDYWGQGTQVTVSS | high polyreactivity
QVQLVESGGGLVQAGGSLRLSCAASGLTFKYYAMGWYRQAPGKESELVAAITSTGGRTYYADSVKGRFTISRDNAKNTVYLQMNSLKPEDTAVYYCAAYYVGSSKYDSWGQGTQVTVSS | low polyreactivity
QVQLVESGGGLVQAGGSLRLSCAASGSILYTYAMGWYRQSPGKERELVAAISRGGGSTYYADSVKGRFTISRDNAKNSVYLQMNSLKPEDSAVYYCAARKLTRGSGRDDEYWGQGTQVTVSS | high polyreactivity
QVQLVESGGGLVQAGGSLRLSCAASGRIFSKNVRGWYRQAPGKERELVADISNTGRTYYADSVKGRFKISRDNAKNTVYLQMNSLKPEDTAVYYCAADIAYRYFAVEFSSYTGDYWGQGTQVTVSS | low polyreactivity
QVQLVESGGGLVQAGGSLRLSCAASGSIFPYVNAMGWYRQAPGKERELVASIPGGGGTKYADSVKGRFTISRDNAKNTVYLQMNSLKPEDTAVYYCNATSGNPASTARMNYWGQGTQVTVSS | low polyreactivity
QVQLVESGGGLVQAGGSLRLSCAASGFIFFAYAMGWYRQAPGKERELVAAISRTGGSTYYADSVKGRFTISRDNAKNTVYLQMNSLKPEDTAVYYCARPKYAWSYSRGNYWGQGTQVTVSS | high polyreactivity
QVQLVESGGGLVQAGGSLRLSCAASGSIFYGNTMGWYRQAPGKERELVAAISSGGGSTYYADSVKGRFTISRDNAKNTFYSKMNSMKPEETAVYYCAKRTYKQASGYWYDSWGQGTKVTVSS | high polyreactivity
QVQLVESGGGLVQAGGSLRLSCAASGSTFVYYAMGWSRQAPGKERELVAAIKRSGTRTYYADSVKGRFTISRDNAKNTVYLQMNSLKPEDTAVYYCANAVQGKYGYWGQGTQVTVSS | high polyreactivity
